According to article PMC8497785, “Structural Characterization of the RNA-Binding Protein SERBP1 Reveals Intrinsic Disorder and Atypical RNA Binding Modes”:

Molecular target: T1, SERBP1 189-400 (Homo sapiens, UniProt Q8NC51 189-400)
T1 sequence: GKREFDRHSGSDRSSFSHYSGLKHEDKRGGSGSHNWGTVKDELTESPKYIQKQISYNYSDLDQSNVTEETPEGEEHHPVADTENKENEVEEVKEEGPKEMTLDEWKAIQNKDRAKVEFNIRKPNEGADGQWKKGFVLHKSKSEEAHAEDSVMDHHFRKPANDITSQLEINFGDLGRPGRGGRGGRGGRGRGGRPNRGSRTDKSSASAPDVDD
Assay: NMR 1H,15N-HSQC titration; RNA:protein 2:5 to 8:5; CSPs from C-terminal RGG box to C-terminus (N383, T388, S394, A395, V398), RGG glycine broadening; 20 mM sodium phosphate pH 6.9, 60 mM NaCl, 1 mM PMSF, 0.2 mM EDTA, 10% D2O, 4 °C; 50 µM protein
Conditions: protein: recombinant; tags: N-terminal 8xHis removed by TEV (vector-derived residues may remain)

GCGCGGG (ssRNA) [7-mer G-rich RNA (G-quartet ligand)]
binding result: binds
